Here are results for one substance from article PMC2885016.

The test has as its target human P-TEFb (Cdk9 (1-345)•Cyclin T1 (1-266)) (human) (UniProt P50750). Description: SDS-PAGE of dissolved crystals.
Chain of UniProt P50750 (P50750 1-345, chain 1 of 2): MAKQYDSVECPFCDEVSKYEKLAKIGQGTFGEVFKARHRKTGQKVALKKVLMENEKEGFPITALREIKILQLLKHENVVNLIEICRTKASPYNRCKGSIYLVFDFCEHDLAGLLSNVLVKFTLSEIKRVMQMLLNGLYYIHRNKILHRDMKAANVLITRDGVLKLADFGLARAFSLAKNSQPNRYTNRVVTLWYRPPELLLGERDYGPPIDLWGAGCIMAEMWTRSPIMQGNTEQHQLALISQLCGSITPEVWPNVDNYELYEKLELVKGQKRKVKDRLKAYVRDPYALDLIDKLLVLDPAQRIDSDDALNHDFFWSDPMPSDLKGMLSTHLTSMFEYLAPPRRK
Chain of UniProt P50750 (O60563 1-266, chain 2 of 2, further chain): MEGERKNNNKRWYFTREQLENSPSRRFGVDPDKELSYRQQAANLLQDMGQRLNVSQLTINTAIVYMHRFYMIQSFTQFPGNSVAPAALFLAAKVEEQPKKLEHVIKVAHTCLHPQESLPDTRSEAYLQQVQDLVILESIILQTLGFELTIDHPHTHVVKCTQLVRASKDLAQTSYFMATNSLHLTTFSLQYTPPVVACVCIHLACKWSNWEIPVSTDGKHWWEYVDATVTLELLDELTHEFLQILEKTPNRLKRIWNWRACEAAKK

In general, stoichiometry N refers to the number of molecules, sites or subunits per partner or assembly. Substance “HIV-1 Tat (1-86) (from UniProt P04608 1-86) (natural protein)” registered a stoichiometry N of 1.
